B1: Serine/threonine-protein kinase Nek9 (Homo sapiens), Q8TD19 (parent)
chain: MSVLGEYERHCDSINSDFGSESGGCGDSSPGPSASQGPRAGGGAAEQEELHYIPIRVLGRGAFGEATLYRRTEDDSLVVWKEVDLTRLSEKERRDALNEIVILALLQHDNIIAYYNHFMDNTTLLIELEYCNGGNLYDKILRQKDKLFEEEMVVWYLFQIVSAVSCIHKAGILHRDIKTLNIFLTKANLIKLGDYGLAKKLNSEYSMAETLVGTPYYMSPELCQGVKYNFKSDIWAVGCVIFELLTLKRTFDATNPLNLCVKIVQGIRAMEVDSSQYSLELIQMVHSCLDQDPEQRPTADELLDRPLLRKRRREMEEKVTLLNAPTKRPRSSTVTEAPIAVVTSRTSEVYVWGGGKSTPQKLDVIKSGCSARQVCAGNTHFAVVTVEKELYTWVNMQGGTKLHGQLGHGDKASYRQPKHVEKLQGKAIRQVSCGDDFTVCVTDEGQLYAFGSDYYGCMGVDKVAGPEVLEPMQLNFFLSNPVEQVSCGDNHVVVLTRNKEVYSWGCGEYGRLGLDSEEDYYTPQKVDVPKALIIVAVQCGCDGTFLLTQSGKVLACGLNEFNKLGLNQCMSGIINHEAYHEVPYTTSFTLAKQLSFYKIRTIAPGKTHTAAIDERGRLLTFGCNKCGQLGVGNYKKRLGINLLGGPLGGKQVIRVSCGDEFTIAATDDNHIFAWGNGGNGRLAMTPTERPHGSDICTSWPRPIFGSLHHVPDLSCRGWHTILIVEKVLNSKTIRSNSSGLSIGTVFQSSSPGGGGGGGGGEEEDSQQESETPDPSGGFRGTMEADRGMEGLISPTEAMGNSNGASSSCPGWLRKELENAEFIPMPDSPSPLSAAFSESEKDTLPYEELQGLKVASEAPLEHKPQVEASSPRLNPAVTCAGKGTPLTPPACACSSLQVEVERLQGLVLKCLAEQQKLQQENLQIFTQLQKLNKKLEGGQQVGMHSKGTQTAKEEMEMDPKPDLDSDSWCLLGTDSCRPSL

Variants of: B1
Settings: with plk1_human PLK1, P53350
Chain of plk1_human PLK1, P53350 (P53350 whole entry): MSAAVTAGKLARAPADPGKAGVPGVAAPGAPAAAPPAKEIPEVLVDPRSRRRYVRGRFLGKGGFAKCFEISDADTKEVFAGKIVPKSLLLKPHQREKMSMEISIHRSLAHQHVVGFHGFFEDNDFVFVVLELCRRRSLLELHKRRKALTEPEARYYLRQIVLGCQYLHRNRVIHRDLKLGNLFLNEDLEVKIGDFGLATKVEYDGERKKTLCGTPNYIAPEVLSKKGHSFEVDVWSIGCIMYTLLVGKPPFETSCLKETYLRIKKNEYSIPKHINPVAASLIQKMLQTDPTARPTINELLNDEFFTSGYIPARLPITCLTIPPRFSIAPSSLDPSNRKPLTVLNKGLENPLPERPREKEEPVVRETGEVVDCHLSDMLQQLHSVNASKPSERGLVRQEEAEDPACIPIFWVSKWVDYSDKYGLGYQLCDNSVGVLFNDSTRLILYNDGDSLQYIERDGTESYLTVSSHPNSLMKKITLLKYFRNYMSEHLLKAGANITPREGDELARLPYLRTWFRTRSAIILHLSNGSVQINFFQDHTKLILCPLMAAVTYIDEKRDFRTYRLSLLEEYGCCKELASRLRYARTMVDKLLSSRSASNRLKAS

Variant	effect of a mutation on the interaction
S750A	decreasing interaction

Variants of: B1
Settings: with plk1_human PLK1, P53350
Remark: another data set of the same source

Variant	effect of a mutation on the interaction
S869A	disrupting interaction

Source: IntAct's records for PubMed 21642957
